From patent US20120244208A1, “COSMETIC SKIN CARE METHODS AND COMPOSITIONS” (priority 2009, published 2012)

Columns and labels:
[1] = test system: Normal human dermal fibroblasts (NHDFs) seeded on collagen type 1 gels; experiment: Fibroblast-seeded collagen gel contraction; assay type: cell-based; details: 0.1 mg/ml lactoferrin, 0.1 mg/ml ICI 118 551, 1.0 mg/ml Isoproterenol, 3.5×10^4 cells per well
Experimental: Normal human dermal fibroblasts (NHDFs) were obtained by tissue donation following circumcision following patient informed consent. The tissue was rinsed in Phosphate Buffered Saline (PBS) and Pen/Strep and Amphotericin B (Pen/strep) at 10 ug/ml. The tissue was then minced to 1 mm2 sections and suspended in Trypsin-EDTA 1:250 at room temperature (RT) for 1 hr. The tissue was then washed twice by centrifugation at 2500 g for 3min in serum supplemented DMEM/F12. A single cell suspension was created using mechanical disaggregation. The cells were counted using a haemocytometer and cultured at 1×10^6 cells per T75 tissue culture flask in DMEM/F12 containing 10% Fetal Bovine Serum (FBS) and 10 ug/ml Pen/strep. Incubators were kept at 37° C. and 5% CO2. Medium was changed every 3-4 days and cells were used from the 4th passage in vitro.
Collagen gels were formed. A solution of collagen, consisting of 2 mg/ml type 1 bovine collagen from bovine Achilles tendon in 0.5M acetic acid, was made. This made up 80% of the gel. Another 10% was made up of 10×PBS and the remaining volume was made up of FBS. The pH of the entire solution was adjusted to 7.4 using NaOH. 400 μl of the solution was placed into each well of a 24 well plate. The gels were set at 37° C. for 1 hr. After ensuring that the gels were set properly, they were detached from the sides of the wells and exposed to 1 ml fully supplemented DMEM/F12 overnight to acclimatize. The complete gels were seeded with 3.5×10^4 cells per well and the test compounds were added at this point. The test compound were added as follows: 0.1 mg/ml lactoferrin, 0.1 mg/ml ICI 118 551, 1.0 mg/ml Isoproterenol. A cell only and no cell control were also incuded.
Photographs were taken from the same distance at 0, 3, 6, 12 and 24 hrs of exposure using a Canon Powershot A640 10MP camera. The photos were transferred to CorelDRAW X3 and the inside diameter of the well as well as the outer edge of the gel were measured using the circle tool. […] These two diameters were then converted to a percentage of the well diameter by the formula geloutside/wellinside×100=gelrelative. This value was then worked out the same way for each gel at every time period. The time period Ohrs taken to be 100% of gel size and each time period after that was compared to it as a relative percentage. The standard deviation was calculated based on the original relative percentage to the well.

[2] = test system: Normal human dermal fibroblasts (NHDFs) seeded on collagen type 1 gels; experiment: Fibroblast-seeded collagen gel contraction; assay type: cell-based; details: monitored for a further 3 days

B1: Lactoferrin (protein, UniProt P02788 20-710, looked up)
Lactotransferrin: GRRRSVQWCAVSQPEATKCFQWQRNMRKVRGPPVSCIKRDSPIQCIQAIAENRADAVTLDGGFIYEAGLAPYKLRPVAAEVYGTERQPRTHYYAVAVVKKGGSFQLNELQGLKSCHTGLRRTAGWNVPIGTLRPFLNWTGPPEPIEAAVARFFSASCVPGADKGQFPNLCRLCAGTGENKCAFSSQEPYFSYSGAFKCLRDGAGDVAFIRESTVFEDLSDEAERDEYELLCPDNTRKPVDKFKDCHLARVPSHAVVARSVNGKEDAIWNLLRQAQEKFGKDKSPKFQLFGSPSGQKDLLFKDSAIGFSRVPPRIDSGLYLGSGYFTAIQNLRKSEEEVAARRARVVWCAVGEQELRKCNQWSGLSEGSVTCSSASTTEDCIALVLKGEADAMSLDGGYVYTAGKCGLVPVLAENYKSQQSSDPDPNCVDRPVEGYLAVAVVRRSDTSLTWNSVKGKKSCHTAVDRTAGWNIPMGLLFNQTGSCKFDEYFSQSCAPGSDPRSNLCALCIGDEQGENKCVPNSNERYYGYTGAFRCLAENAGDVAFVKDVTVLQNTDGNNNEAWAKDLKLADFALLCLDGKRKPVTEARSCHLAMAPNHAVVSRMDKVERLKQVLLHQQAKFGRNGSDCPDKFCLFQSETKNLLFNDNTECLARLHGKTTYEKYLGPQYVAGITNLKKCSTSPLLEACEFLRK
notes: transferrin; known collagen contractor
- % of original size (mean) ([1]; 0 hrs (taken to be 100% of gel size)): 100%
- % of original size (mean) ([1]; 3 hrs): 92.62%
- % of original size (mean) ([1]; 6 hrs): 64.48%
- % of original size (mean) ([1]; 12 hrs): 54.71%
- % of original size (mean) ([1]; 24 hrs): 49.73%
- return of gels to original dimensions [2]: did not return to their original dimensions
